# From the supplement of paper PMC7125110
# ± gives the standard error. This sample holds only a part of the variants without activity.
# B1: glmS ribozyme (parent)
# chain: AUAAAAGCGCCAGAACUACAGAAAUGUAGUUGACGAGGAGGAGGUUUAUCGAAUUUUCGGCGGAUGCCUCCAAA
# How the values were obtained:
# Conditions in all cases: with glucosamine-6-phosphate
# [1] = variants of: B1; experiment: self-cleavage kobs at 40 uM GlcN6P; higher = faster cleavage; RNA array
# Summary of the method: (§1)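 Tracking of barcoded ribozyme variants used a hybridised Cy3 probe at 37 °C, after in situ transcription by E. coli RNA polymerase on sequenced MiSeq chips. The flowed solution held 40 μM to 10 mM glucosamine-6-phosphate in HEPES/KCl/Mg(OAc)2 buffer, and imaging ran over ~14 h. kobs was taken from exponential decay fits of normalised per-tile medians, and kcat and KM from weighted Michaelis–Menten fits.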
# [2] = variants of: B1; experiment: self-cleavage kobs at 160 uM GlcN6P; higher = faster cleavage; RNA array
# Summary of the method: as §1
# [3] = variants of: B1; experiment: self-cleavage kobs at 640 uM GlcN6P; higher = faster cleavage; RNA array
# Summary of the method: as §1
# [4] = variants of: B1; experiment: self-cleavage kobs at 2500 uM GlcN6P; higher = faster cleavage; RNA array
# Summary of the method: as §1
# [5] = variants of: B1; experiment: self-cleavage kobs at 10000 uM GlcN6P; higher = faster cleavage; RNA array
# Summary of the method: as §1
Variant,self-cleavage kobs at 40 uM GlcN6P [1] [s⁻¹],self-cleavage kobs at 160 uM GlcN6P [2] [s⁻¹],self-cleavage kobs at 640 uM GlcN6P [3] [s⁻¹],self-cleavage kobs at 2500 uM GlcN6P [4] [s⁻¹],self-cleavage kobs at 10000 uM GlcN6P [5] [s⁻¹]
G21U U31A,0.000447 ± 9.2e-05,0.00108 ± 0.0003,0.00614 ± 0.0013,0.0102 ± 0.0025,0.042 ± 0.018
U46C A64C,< 1e-05,,,< 1e-05,< 1e-05
G9A C11G G35U G37U C61U,< 1e-05,,,< 1e-05,
G13C A33C G41U,< 1e-05,< 1e-05,< 1e-05,< 1e-05,< 1e-05
C34U U55G,< 1e-05,< 1e-05,< 1e-05,,
G66A C71U,0.000673 ± 0.00012,,0.00361 ± 0.0008,,0.0215 ± 0.007
A52U U55A U57C C67A,< 1e-05,,,,< 1e-05
U54C C68U,0.000265 ± 3.7e-05,0.000635 ± 8.4e-05,0.000868 ± 0.00023,0.00216 ± 0.0005,0.0106 ± 0.0023
G7C C16U U31A G41U,< 1e-05,,,< 1e-05,< 1e-05
C34A C58U C71U,< 1e-05,,,,< 1e-05
A15C A33U C61A,< 1e-05,,,,
G62U A64U,< 1e-05,,< 1e-05,,< 1e-05
C11G G38A,< 1e-05,,< 1e-05,< 1e-05,
A12G A36C G51U,< 1e-05,,,,< 1e-05
A6U G9A A33G C68U C71G,0.000234 ± 0.0001,,,,4.24e-05 ± 1.8e-05
C8G A48G C58G,< 1e-05,< 1e-05,< 1e-05,,< 1e-05
A39G G51U,< 1e-05,< 1e-05,< 1e-05,< 1e-05,< 1e-05
G60U U65G,< 1e-05,,< 1e-05,< 1e-05,< 1e-05
G7A U31C A48U,< 1e-05,,,,
G35U A42U,< 1e-05,< 1e-05,< 1e-05,< 1e-05,
